Data: patent US20110263454A1, “Methods of Identifying Functional Characteristics of Promoters, Transcription Modifying Proteins and Transcription Modulating Agents” (Salk Institute for Biological Studies, priority 2008, published 2011)

B1: GCNF: Germ Cell Nuclear Factor (NR6A1, GCNF1), cDNA driver (protein, UniProt Q15406 1-480, looked up)
Nuclear receptor subfamily 6 …: MERDEPPPSGGGGGGGSAGFLEPPAALPPPPRNGFCQDELAELDPGTISVSDDRAEQRTCLICGDRATGLHYGIISCEGCKGFFKRSICNKRVYRCSRDKNCVMSRKQRNRCQYCRLLKCLQMGMNRKAIREDGMPGGRNKSIGPVQISEEEIERIMSGQEFEEEANHWSNHGDSDHSSPGNRASESNQPSPGSTLSSSRSVELNGFMAFREQYMGMSVPPHYQYIPHLFSYSGHSPLLPQQARSLDPQSYSLIHQLLSAEDLEPLGTPMLIEDGYAVTQAELFALLCRLADELLFRQIAWIKKLPFFCELSIKDYTCLLSSTWQELILLSSLTVYSKQIFGELADVTAKYSPSDEELHRFSDEGMEVIERLIYLYHKFHQLKVSNEEYACMKAINFLNQDIRGLTSASQLEQLNKRYWYICQDFTEYKYTHQPNRFPDLMMCLPEIRYIAGKMVNVPLEQLPLLFKVVLHSCKTSVGKE
B2: SHP: Small Heterodimer Partner (NR0B2), cDNA driver (protein, UniProt Q15466 1-257, looked up)
Nuclear receptor subfamily 0 …: MSTSQPGACPCQGAASRPAILYALLSSSLKAVPRPRSRCLCRQHRPVQLCAPHRTCREALDVLAKTVAFLRNLPSFWQLPPQDQRRLLQGCWGPLFLLGLAQDAVTFEVAEAPVPSILKKILLEEPSSSGGSGQLPDRPQPSLAAVQWLQCCLESFWSLELSPKEYACLKGTILFNPDVPGLQAASHIGHLQQEAHWVLCEVLEPWCPAAQGRLTRVLLTASTLKSIPTSLLGDLFFRPIIGDVDIAGLLGDMLLLR
B3: DAX-1: DAX1 (NR0B1), cDNA driver (protein, UniProt P51843 1-470, looked up)
Nuclear receptor subfamily 0 …: MAGENHQWQGSILYNMLMSAKQTRAAPEAPETRLVDQCWGCSCGDEPGVGREGLLGGRNVALLYRCCFCGKDHPRQGSILYSMLTSAKQTYAAPKAPEATLGPCWGCSCGSDPGVGRAGLPGGRPVALLYRCCFCGEDHPRQGSILYSLLTSSKQTHVAPAAPEARPGGAWWDRSYFAQRPGGKEALPGGRATALLYRCCFCGEDHPQQGSTLYCVPTSTNQAQAAPEERPRAPWWDTSSGALRPVALKSPQVVCEAASAGLLKTLRFVKYLPCFQVLPLDQQLVLVRNCWASLLMLELAQDRLQFETVEVSEPSMLQKILTTRRRETGGNEPLPVPTLQHHLAPPAEARKVPSASQVQAIKCFLSKCWSLNISTKEYAYLKGTVLFNPDVPGLQCVKYIQGLQWGTQQILSEHTRMTHQGPHDRFIELNSTLFLLRFINANVIAELFFRPIIGTVSMDDMMLEMLCTKI

System: mPgc1b promoter
Assay: NHR-promoter luciferase screen, mPgc1b promoter
Format: cell-based, mouse
Conditions: PGC1b promoter reporter; co-transfected HR, without or with its ligand
In short: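 Luciferase reporter read-out after co-expression in CV-1 cells of V5H6-tagged receptor (alone or with RXR), the promoter construct and LacZ. Values are luciferase/LacZ relative to a control lacking NHR or ligand; orphan receptors tested ligand-free.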

Row | Molecule | Luc. act., normalized to lacZ
1 | B1 | 11.7
2 | B2 | 9.0
3 | B3 | 7.4

Same assay, conditions: PGC1b promoter reporter; co-transfected HR, without or with its ligand; relative to control

Row | Molecule | Normalized Luc. act., normalized to control
4 | B1 | 1.0
5 | B2 | 0.8
6 | B3 | 0.6

Same assay, conditions: mPgc1b promoter-luciferase, CV-1 cells, NHR +/- ligand, control = 1.00

Row | Molecule | luciferase activity normalized to lacZ activity and to a control, mPgc1b
7 | B1 | 0.99
8 | B2 | 0.76
9 | B3 | 0.62

System: mPOMC promoter
Assay: NHR-promoter luciferase screen, mPOMC promoter
Format: cell-based, mouse
Conditions: Table 6d; luciferase activity relative to control (control = 1.00)
In short: (§1)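 CV-1 cells were co-transfected with 50 ng NHR (homodimer or NHR/RXR heterodimer), 100 ng promoter-luciferase construct and 50 ng LacZ. Luciferase was normalized to LacZ and to a no-NHR/no-ligand control.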

Row | Molecule | Results of assays of transcription factor (+/- ligand) with mPOMC
10 | B1 | 0.61
11 | B2 | 0.95
12 | B3 | 0.92

Same assay, conditions: mPOMC promoter; HR component with or without ligand

Row | Molecule | Luc. act., normalized to lacZ
13 | B1 | 42.0
14 | B2 | 65.6
15 | B3 | 63.4

Same assay, conditions: mPOMC promoter; HR component with or without ligand; relative to control

Row | Molecule | Normalized Luc. act., normalized to control
16 | B1 | 0.6
17 | B2 | 1.0
18 | B3 | 0.9

System: mAdiponectin promoter
Assay: NHR-promoter luciferase screen, mAdiponectin promoter
Format: cell-based, mouse
Conditions: Adiponectin; HR component without or with its ligand
In short: as §1

Row | Molecule | Luc. act., normalized to lacZ | Normalized Luc. act., normalized to control
19 | B1 | 63.1 | 1.0
20 | B2 | 46.1 | 0.7
21 | B3 | 45.6 | 0.7

Same assay, conditions: transcription factor +/- ligand; control = 1.00

Row | Molecule | mAdiponectin promoter reporter activity
22 | B1 | 1.00
23 | B2 | 0.73
24 | B3 | 0.73

System: mDio1 promoter
Assay: NHR-promoter luciferase screen, mDio1 promoter
Format: cell-based, mouse
Conditions: Dio1; HR component without or with its ligand
In short: as §1

Row | Molecule | Luc. act., normalized to lacZ | Normalized Luc. act., normalized to control
25 | B1 | 5.1 | 1.1
26 | B2 | 4.8 | 1.1
27 | B3 | 8.9 | 2.0

Same assay, conditions: transcription factor +/- ligand; control = 1.00

Row | Molecule | mDio1 promoter reporter activity
28 | B1 | 1.13
29 | B2 | 1.07
30 | B3 | 2.00

System: hTNFa promoter
Assay: NHR-promoter luciferase screen, hTNFa promoter
Format: cell-based, human
Conditions: TNFa promoter; HR component without or with ligand
In short: as §1

Row | Molecule | Luc. act., normalized to lacZ | Normalized Luc. act., normalized to control
31 | B1 | 1203.7 | 1.2
32 | B2 | 914.4 | 0.9
33 | B3 | 854.8 | 0.9

Same assay, conditions: transcription factor +/- ligand; control = 1.00

Row | Molecule | hTNFa promoter reporter activity
34 | B1 | 1.22
35 | B2 | 0.93
36 | B3 | 0.87

System: hIFNg promoter
Assay: NHR-promoter luciferase screen, hIFNg promoter
Format: cell-based, human
Conditions: IFNg promoter; HR component without or with ligand
In short: as §1

Row | Molecule | Luc. act., normalized to lacZ | Normalized Luc. act., normalized to control
37 | B1 | 18.4 | 1.2
38 | B2 | 16.0 | 1.0
39 | B3 | 24.7 | 1.6

Same assay, conditions: transcription factor +/- ligand; control = 1.00

Row | Molecule | hIFNg promoter reporter activity
40 | B1 | 1.15
41 | B2 | 1.01
42 | B3 | 1.55
